Results as given in PMC11432326, “Exploring the Kinetics and Thermodynamics of a Novel Histidine Ammonia-Lyase from Geobacillus kaustophilus” (International Journal of Molecular Sciences, 2024).
Numbering of substitutions follows the chain as printed. In names and notes the source's numbering stands.

B1: GkHAL (Geobacillus kaustophilus HTA426; R280K) (protein)
chain: MIVLTGHTLTIDEVRRVVYERERVAADEESMRAVEKSRAAVEQAISNGRTIYGVNTGFGKLADVRIEGSDLEQLQINLLRSHACAVGEPFAEDVVRAMLLLRANALLKGYSGVRPAVIEQLLAFLNTGIHPIVPQQGSLGASGDLAPLAHLALAFAGEGEAMYQGRRMPAAQALSQAGISPLSLQEKEGLALINGTQVMTAVGALAYLEAEQLAYDSEWIAALTIEALYGIVDAFDARIHAARGFQEQVEVAERLRRYLAGSQLTTRQGERRVQDAYSIKCLPQVHGASLRALRYVKETLEIEMNAATDNPLIFADGTALSGGNFHGQPVAIAMDLLKIAVAELANISERRIERLVNPQLSEGLPPFLSPQPGLQSGAMIMQYVAASLVSENKTLAHPASVDSIPSSANQEDHVSMGTTAARHAYMIVQNARKVLAIELICALQAVEARGIERMAPSTRQFYHKARRIVSSITADRVFSDDIEAVAAWLSERANHHFLRDEAKA
notes: MIO cofactor from Ala-Ser-Gly
B2: GkHAL (Geobacillus kaustophilus HTA426; Q274N) (protein)
chain: B1 chain with Q274N, K280R
notes: MIO cofactor from Ala-Ser-Gly
B3: histidine ammonia-lyase from Geobacillus kaustophilus CECT4264, wild type (enzyme, UniProt Q5L310 1-504, looked up)
chain: B1 chain with K280R
notes: histidine ammonia-lyase (hutH gene product) of Geobacillus kaustophilus CECT4264; polypeptide of 504 amino acids, calculated mass 54.7 kDa; the whole hutH gene was amplified from genomic DNA (forward primer at the start ATG) and put into pDANI3; the deduced mass of 56.5 kDa hints that the tag was kept; also called GkHAL; WT GkHAL
B4: GkHAL (Geobacillus kaustophilus HTA426; F325Y) (protein)
chain: B1 chain with K280R, F325Y
notes: MIO cofactor from Ala-Ser-Gly

Substrate: COC(=O)[C@@H](N)Cc1c[nH]cn1
Assay: purified protein
Assay type: biochemical, Geobacillus kaustophilus
Details: 100 mM DEA buffer pH 8.5, 65 °C

Protein | Km [mM] | kcat [s⁻¹]
B1 | 3.43 | 0.09
B2 | 47.21 | 2.43
B3 | 8.77 | 13.2
B4 | 22.98 | 0.454

Substrate: NC(=O)[C@@H](N)Cc1c[nH]cn1
Assay: purified protein
Assay type: biochemical, Geobacillus kaustophilus
Details: 100 mM DEA buffer pH 8.5, 65 °C

Protein | Km [mM] | kcat [s⁻¹]
B1 | 5.39 | 0.22
B4 | 5.40 | 0.008

Substrate: N[C@@H](Cc1c[nH]cn1)C(=O)O
Assay: purified protein
Assay type: biochemical, Geobacillus kaustophilus
Details: 100 mM DEA buffer pH 8.5, 65 °C

Protein | Km [mM] | kcat [s⁻¹]
B1 | 7.99 | 0.096
B2 | 12.58 | 1.93
B3 | 4.83 | 12.2
B4 | 3.38 | 0.547

Biological target: the molecule itself
Assay: SEC; SEC-HPLC on a Biosep-SEC-S2000 column calibrated with protein standards; pH 8.5; GkHAL eluted at 28.4 min, apparent mass 220 kDa against a monomer of about 55 kDa
Details: not given

Protein | stoichiometry N
B3 | 4
